# Measurements from patent publication US20250186594A1 (BRIGHT PEAK THERAPEUTICS, published 2025).
# Substitutions are numbered along the chain they refer to. Names and notes keep the numbering of the source.
# T1: IL-18Rα/β heterodimer (Fc fused human IL-18Rα mixed with Fc fused human IL-18Rβ) (human, UniProt Q13478 19-329; O95256 20-356, limits assumed)
# T1 construct: Alpha and beta Fc fusions were mixed and pre-incubated for 30 min before capture on anti-human IgG; also called alpha/beta heterodimer IL-18 receptor; heterodimeric human IL-18 receptor alpha (CD218a) and IL-18R accessory protein (IL-18RAP/CDw218b); not shown: Fc
# T1 sequence (looked up) 1: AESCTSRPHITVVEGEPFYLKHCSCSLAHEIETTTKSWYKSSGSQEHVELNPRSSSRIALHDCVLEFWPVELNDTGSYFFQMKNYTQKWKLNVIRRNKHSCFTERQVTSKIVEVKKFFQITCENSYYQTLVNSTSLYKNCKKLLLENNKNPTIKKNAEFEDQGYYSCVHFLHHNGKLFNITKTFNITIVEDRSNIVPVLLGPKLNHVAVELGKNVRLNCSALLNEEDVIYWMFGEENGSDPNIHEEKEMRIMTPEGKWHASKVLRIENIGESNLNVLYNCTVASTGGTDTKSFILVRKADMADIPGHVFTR
# T1 sequence (looked up) 2: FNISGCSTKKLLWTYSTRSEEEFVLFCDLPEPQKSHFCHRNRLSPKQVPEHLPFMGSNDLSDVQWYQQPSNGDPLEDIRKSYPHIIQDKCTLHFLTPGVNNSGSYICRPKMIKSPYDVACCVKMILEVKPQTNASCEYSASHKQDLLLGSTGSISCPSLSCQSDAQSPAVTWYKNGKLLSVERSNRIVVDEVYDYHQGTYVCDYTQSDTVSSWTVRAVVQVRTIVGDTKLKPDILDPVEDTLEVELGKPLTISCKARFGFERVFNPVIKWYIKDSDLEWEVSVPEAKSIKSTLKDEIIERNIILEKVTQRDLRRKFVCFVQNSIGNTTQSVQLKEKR
# T2: IL-18 receptor (IL-18R) on HEK-Blue IL18R reporter cells (UniProt Q13478 19-541; O95256 20-599, limits assumed)
# T2 sequence (looked up) 1: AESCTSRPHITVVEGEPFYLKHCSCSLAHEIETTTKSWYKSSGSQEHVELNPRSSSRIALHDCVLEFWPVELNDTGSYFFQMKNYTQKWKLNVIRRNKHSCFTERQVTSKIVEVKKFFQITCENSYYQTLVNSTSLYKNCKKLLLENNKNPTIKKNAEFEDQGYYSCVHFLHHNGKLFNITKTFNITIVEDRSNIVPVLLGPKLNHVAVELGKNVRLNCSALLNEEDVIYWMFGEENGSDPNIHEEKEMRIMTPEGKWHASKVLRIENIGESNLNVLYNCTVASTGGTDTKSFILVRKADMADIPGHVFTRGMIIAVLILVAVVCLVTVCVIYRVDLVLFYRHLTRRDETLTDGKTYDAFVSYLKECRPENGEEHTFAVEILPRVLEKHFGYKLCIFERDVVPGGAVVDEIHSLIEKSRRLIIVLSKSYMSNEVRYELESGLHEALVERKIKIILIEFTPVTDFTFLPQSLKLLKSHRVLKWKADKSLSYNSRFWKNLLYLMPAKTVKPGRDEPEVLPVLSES
# T2 sequence (looked up) 2: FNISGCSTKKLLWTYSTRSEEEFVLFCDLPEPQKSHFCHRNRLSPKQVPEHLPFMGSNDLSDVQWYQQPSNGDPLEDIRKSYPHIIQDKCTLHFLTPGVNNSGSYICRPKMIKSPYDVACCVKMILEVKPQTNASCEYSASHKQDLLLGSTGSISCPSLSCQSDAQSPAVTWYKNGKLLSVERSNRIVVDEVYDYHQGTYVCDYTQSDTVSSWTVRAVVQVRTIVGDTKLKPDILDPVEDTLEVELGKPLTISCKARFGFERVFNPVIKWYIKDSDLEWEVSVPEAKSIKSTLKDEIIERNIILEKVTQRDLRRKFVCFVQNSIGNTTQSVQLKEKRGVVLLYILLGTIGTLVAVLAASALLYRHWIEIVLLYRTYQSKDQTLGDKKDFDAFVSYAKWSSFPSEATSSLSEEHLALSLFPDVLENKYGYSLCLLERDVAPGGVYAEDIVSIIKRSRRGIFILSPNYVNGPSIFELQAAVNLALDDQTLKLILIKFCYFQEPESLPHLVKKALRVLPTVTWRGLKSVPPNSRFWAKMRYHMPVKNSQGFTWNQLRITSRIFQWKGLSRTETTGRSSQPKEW
# B1: IL-18 variant SEQ ID NO: 62 with 30 kDa PEG (E6K, C38A, K53A, C127A, C68-30kPEG) (ligand)
# chain: YFGKLKSKLSVIRNLNDQVLFIDQGNRPLFEDMTDSDARDNAPRTIFIISMYADSQPRGMAVTISVKCEKISTLSCENKIISFKEMNPPDNIKDTKSDIIFFQRSVPGHDNKMQFESSSYEGYFLAAEKERDLFKLILKKEDELGDRSIMFTVQNED
# modifications: 30 kDa PEG on Cys 68 (C68-30kPEG)
# notes: also called 62 + PEG
# B2: IL-18 variant SEQ ID NO: 240 (E6R, V11I, C38A, K53A, T63A, C76A, C127A) (ligand)
# chain: B1 chain with K6R, V11I, T63A, C76A
# B3: IL-18 variant SEQ ID NO: 217 (V11I, C38A, N41A, K53A, C76A, C127A) (ligand)
# chain: B1 chain with K6E, V11I, N41A, C76A
# B4: IL-18 variant SEQ ID NO: 238 (E6K, V11I, C38A, K53A, T63A, C76A, C127A, V153Y) (ligand)
# chain: B1 chain with V11I, T63A, C76A, V153Y
# B5: IL-18 variant SEQ ID NO: 212 (V11I, D35A, C38A, K53A, C76A, C127A) (ligand)
# chain: B1 chain with K6E, V11I, D35A, C76A
# B6: IL-18 variant SEQ ID NO: 220 (V11I, C38A, K53A, C76A, H109A, C127A) (ligand)
# chain: B1 chain with K6E, V11I, C76A, H109A
# B7: IL-18 variant SEQ ID NO: 234 (E6K, V11I, C38A, K53A, T63A, C76A, Q103R, C127A) (ligand)
# chain: B1 chain with V11I, T63A, C76A, Q103R
# B8: IL-18 variant SEQ ID NO: 233 (E6K, V11I, C38A, I49R, K53A, T63A, C76A, C127A) (ligand)
# chain: B1 chain with V11I, I49R, T63A, C76A
# B9: IL-18 variant SEQ ID NO: 224 (V11I, C38A, C76A, Q103K, C127A) (ligand)
# chain: B1 chain with K6E, V11I, A53K, C76A, Q103K
# B10: IL-18 variant SEQ ID NO: 214 (V11I, D37A, C38A, K53A, C76A, C127A) (ligand)
# chain: B1 chain with K6E, V11I, D37A, C76A
# B11: IL-18 variant SEQ ID NO: 229 (V11I, C38A, C76A, S105K, C127A) (ligand)
# chain: B1 chain with K6E, V11I, A53K, C76A, S105K
# B12: IL-18 variant SEQ ID NO: 223 (K8E, V11I, C38A, C76A, Q103R, C127A) (ligand)
# chain: B1 chain with K6E, K8E, V11I, A53K, C76A, Q103R
# B13: IL-18 variant SEQ ID NO: 211 (V11I, T34A, C38A, K53A, C76A, C127A) (ligand)
# chain: B1 chain with K6E, V11I, T34A, C76A
# B14: IL-18 variant SEQ ID NO: 208 (V11I, C38A, K53A, D54A, C76A, C127A) (ligand)
# chain: B1 chain with K6E, V11I, D54A, C76A
# B15: IL-18 variant SEQ ID NO: 243 (Y1M, E6K, V11I, C38A, K53A, T63A, C76A, C127A) (ligand)
# chain: B1 chain with Y1M, V11I, T63A, C76A
# B16: IL-18 variant SEQ ID NO: 225 (V11I, C38A, S55H, C76A, C127A) (ligand)
# chain: B1 chain with K6E, V11I, A53K, S55H, C76A
# B17: IL-18 variant SEQ ID NO: 227 (V11I, C38A, S55T, C76A, C127A) (ligand)
# chain: B1 chain with K6E, V11I, A53K, S55T, C76A
# B18: IL-18 variant SEQ ID NO: 237 (E6K, V11I, C38A, K53A, T63A, C76A, C127A, V153E) (ligand)
# chain: B1 chain with V11I, T63A, C76A, V153E
# B19: IL-18 variant SEQ ID NO: 221 (V11I, C38A, K53A, C76A, D110A, C127A) (ligand)
# chain: B1 chain with K6E, V11I, C76A, D110A
# B20: IL-18 variant SEQ ID NO: 226 (V11I, C38A, S55R, C76A, C127A) (ligand)
# chain: B1 chain with K6E, V11I, A53K, S55R, C76A
# B21: IL-18 variant SEQ ID NO: 230 (K8L, E6K, V11I, C38A, K53A, T63A, C76A, C127A) (ligand)
# chain: B1 chain with K8L, V11I, T63A, C76A
# B22: IL-18 variant SEQ ID NO: 210 (V11I, E31A, C38A, K53A, C76A, C127A) (ligand)
# chain: B1 chain with K6E, V11I, E31A, C76A
# B23: IL-18 variant SEQ ID NO: 204 (V11I, C38A, K53A, C76A, C127A) (ligand)
# chain: B1 chain with K6E, V11I, C76A
# B24: IL-18 variant SEQ ID NO: 228 (V11I, C38A, C76A, S105I, C127A) (ligand)
# chain: B1 chain with K6E, V11I, A53K, C76A, S105I
# B25: IL-18 variant SEQ ID NO: 235 (E6K, K8E, V11I, C38A, K53A, T63A, C76A, Q103R, C127A) (ligand)
# chain: B1 chain with K8E, V11I, T63A, C76A, Q103R
# B26: IL-18 variant SEQ ID NO: 206 (V11I, C38A, K53A, S55A, C76A, C127A) (ligand)
# chain: B1 chain with K6E, V11I, S55A, C76A
# B27: IL-18 variant SEQ ID NO: 222 (K8R, V11I, C38A, C76A, Q103E, C127A) (ligand)
# chain: B1 chain with K6E, K8R, V11I, A53K, C76A, Q103E
# B28: IL-18 variant SEQ ID NO: 216 (V11I, C38A, D40A, K53A, C76A, C127A) (ligand)
# chain: B1 chain with K6E, V11I, D40A, C76A
# B29: IL-18 variant SEQ ID NO: 219 (V11I, C38A, K53A, C76A, G108A, C127A) (ligand)
# chain: B1 chain with K6E, V11I, C76A, G108A
# B30: IL-18 variant SEQ ID NO: 205 (V11I, C38A, K53A, T63A, C76A, C127A) (ligand)
# chain: B1 chain with K6E, V11I, T63A, C76A
# B31: IL-18 variant SEQ ID NO: 213 (V11I, S36A, C38A, K53A, C76A, C127A) (ligand)
# chain: B1 chain with K6E, V11I, S36A, C76A
# B32: IL-18 variant SEQ ID NO: 232 (E6K, V11I, C38A, I49M, K53A, T63A, C76A, C127A) (ligand)
# chain: B1 chain with V11I, I49M, T63A, C76A
# B33: IL-18 variant SEQ ID NO: 215 (V11I, E31A, D37A, C38A, K53A, C76A, C127A) (ligand)
# chain: B1 chain with K6E, V11I, E31A, D37A, C76A
# B34: IL-18 variant SEQ ID NO: 218 (V11I, C38A, K53A, C76A, C127A, D132A) (ligand)
# chain: B1 chain with K6E, V11I, C76A, D132A
# B35: IL-18 variant SEQ ID NO: 209 (F2A, V11I, C38A, K53A, C76A, C127A) (ligand)
# chain: B1 chain with F2A, K6E, V11I, C76A
# Molecular target: T1, IL-18Rα/β heterodimer (Fc fused human …)
# Test: SPR, Fc-IL-18Rα/β captured, heterogeneous ligand fit
# Method: The interaction of the wild type and of modified IL-18 polypeptides with human IL-18 receptor subunits are measured with Surface Plasmon Resonance (SPR) technology. Anti-human IgG antibodies are bound by amine coupling onto a CM5 chip to capture 6 µg/mL of Fc fused human IL-18Rα, […] of Fc fused human IL-18Rβ, or […] of Fc fused human IL-18BP isoform a (IL-18BPa) for 30 min before capture. In other settings, […] of alpha and beta IL-18 receptors are mixed and pre-incubated for 30 min before capture of the alpha/beta heterodimer IL-18 receptor.
# The kinetic binding of the IL-18 analytes are measured with a Biacore 8K instrument in two fold serial dilutions starting at […] down to 0.98 nM. Regeneration of the surface back to amine coupled anti IgG antibody is done after every concentration of analyte. To measure the protein association to the receptors, the samples are injected with a flow rate of […] for 60 s, followed by 300 s buffer only to detect the dissociation. The used running buffer is 1×PBS with 0.05% Tween20. The relative response units (RU, Y-axis) are plotted against time (s, X-axis) and analyzed in a kinetic 1:1 binding model for the monomer receptor binding and for the binding to the IL-18BP. A kinetic heterogenous ligand fit model is applied for the alpha/beta heterodimer binding.
Kd [nM],koff [s⁻¹],kon [M⁻¹ s⁻¹],Binder
14.9,0.000779,52300,B1

# Molecular target: T2, IL-18 receptor (IL-18R) on HEK-Blue …
# Test: cell-based or functional assay
row,"EC50, HEK-Blue IL18R reporter [nM]",Binder
1,0.04,B2
2,11.7,B3
3,0.08,B4
4,13.1,B5
5,19.5,B6
6,0.26,B7
7,0.04,B8
8,1.5,B9
9,14.1,B10
10,7.73,B11
11,2.3,B12
12,0.7,B13
13,1,B14
14,0.02,B15
15,3.14,B16
16,4.73,B17
17,0.1,B18

row,"EC50, HEK-Blue IL18R reporter [nM]",Binder
1,2.02,B19
2,1.91,B20
3,0.29,B21
4,6.6,B22
5,0.98,B23
6,5.37,B24
7,0.4,B25
8,3.63,B26
9,2.01,B27
10,0.52,B28
11,15.6,B29
12,0.17,B30
13,0.25,B31
14,0.07,B32
15,11.9,B33
16,1.95,B34
17,7.28,B35
